{
  "source": "patent US20020086018A1",
  "about": "(published 2002)",
  "binders": {"B1": {"name": "Soluble murine APRIL-Flag protein (FLAG-tagged soluble mouse G70) (ligand)", "chain": "KHKKKHSVLHLVPVNITSKADSDVTEVMWQPVLRRGRGLEAQGDIVRVWDTGIYLLYSQVLFHDVTFTMGQVVSREGQGRRETLFRCIRSMPSDPDRAYNSCYSAGVFHLHQGDIITVKIPRANAKLSLSPHGTFLGFV"}},
  "target": "T1, hTACI-Fc (soluble human TACI-Fc receptor fusion protein) (human, UniProt O14836 1-165)",
  "T1 construct": "also called shTACI-Fc; sTACI",
  "T1 sequence": "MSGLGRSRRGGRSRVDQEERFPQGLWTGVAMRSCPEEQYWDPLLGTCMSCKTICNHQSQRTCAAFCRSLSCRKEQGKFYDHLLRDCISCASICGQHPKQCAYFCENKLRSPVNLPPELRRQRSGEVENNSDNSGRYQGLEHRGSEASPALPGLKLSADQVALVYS",
  "test": "BIAcore 2000; TACI-Fc immobilised on CM5, Flag-APRIL as analyte, 1:1 Langmuir model",
  "data": [
    {"binder": "B1", "values": [
      {"measurement": "Kd", "result": 1.48, "unit": "nM"}
    ]}
  ]
}
